Data: patent US20170233495A1 (CALYPSO BIOTECH, published 2017)

Assays:
[1] = biological target: T1, recombinant human proMMP9 (full length, latent form) (human, UniProt P14780 20-707); assay: cell-based or functional assay
[2] = biological target: T2, neutrophil-derived human monomeric MMP9 (human, UniProt P14780 20-707); assay: cell-based or functional assay
[3] = biological target: neutrophil-derived human dimeric MMP9 (human, UniProt P14780 20-707); assay: cell-based or functional assay
[4] = biological target: T3, neutrophil-derived human NGAL/MMP9 complex (human, UniProt P80188 21-198); assay: cell-based or functional assay
T3 sequence (chain, as listed by the source limits assumed, chain 1 of 2): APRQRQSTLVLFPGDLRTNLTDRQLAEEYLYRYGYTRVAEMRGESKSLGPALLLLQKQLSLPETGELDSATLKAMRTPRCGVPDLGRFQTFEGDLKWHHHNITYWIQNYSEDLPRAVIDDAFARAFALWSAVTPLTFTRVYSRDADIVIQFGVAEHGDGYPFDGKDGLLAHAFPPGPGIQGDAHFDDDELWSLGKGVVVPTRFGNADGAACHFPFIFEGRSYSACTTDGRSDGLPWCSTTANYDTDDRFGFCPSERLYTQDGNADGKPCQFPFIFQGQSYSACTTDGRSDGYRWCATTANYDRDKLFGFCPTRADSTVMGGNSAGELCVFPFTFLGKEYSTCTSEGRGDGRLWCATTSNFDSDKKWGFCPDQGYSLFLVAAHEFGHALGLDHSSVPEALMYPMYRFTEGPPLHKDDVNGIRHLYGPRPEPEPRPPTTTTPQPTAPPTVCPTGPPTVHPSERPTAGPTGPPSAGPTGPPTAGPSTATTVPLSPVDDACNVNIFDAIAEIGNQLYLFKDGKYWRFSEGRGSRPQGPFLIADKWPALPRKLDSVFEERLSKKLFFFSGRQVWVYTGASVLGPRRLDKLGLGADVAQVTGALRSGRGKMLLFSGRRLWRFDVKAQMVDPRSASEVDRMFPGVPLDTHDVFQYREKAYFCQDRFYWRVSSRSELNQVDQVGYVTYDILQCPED
T3 sequence (P80188 21-198 limits assumed, chain 2 of 2): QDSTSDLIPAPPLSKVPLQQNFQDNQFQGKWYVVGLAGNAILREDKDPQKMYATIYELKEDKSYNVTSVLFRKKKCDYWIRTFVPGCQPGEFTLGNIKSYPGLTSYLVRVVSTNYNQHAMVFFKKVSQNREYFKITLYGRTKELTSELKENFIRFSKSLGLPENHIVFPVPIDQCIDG

[5] = biological target: T2, neutrophil-derived human monomeric MMP9; assay: cell-based or functional assay; remark: listed apart in the source
[6] = biological target: T3, neutrophil-derived human NGAL/MMP9 …; assay: cell-based or functional assay; remark: listed apart in the source
[7] = biological target: T1, recombinant human proMMP9 (full length, …); assay: SPR (BIAcore), antibody captured by anti-human Fc, antigen titrated 4.7-150 nM
Procedure: (§1) In a second step, pro-MMP9 or MMP3-activated MMP9 were titrated from 4.7 to 150 nM in 2-fold dilutions.

[8] = biological target: MMP3-activated recombinant human MMP9 (human, UniProt P14780 107-707); assay: as above
MMP3-activated recombinant human MMP9, sequence (P14780 107-707): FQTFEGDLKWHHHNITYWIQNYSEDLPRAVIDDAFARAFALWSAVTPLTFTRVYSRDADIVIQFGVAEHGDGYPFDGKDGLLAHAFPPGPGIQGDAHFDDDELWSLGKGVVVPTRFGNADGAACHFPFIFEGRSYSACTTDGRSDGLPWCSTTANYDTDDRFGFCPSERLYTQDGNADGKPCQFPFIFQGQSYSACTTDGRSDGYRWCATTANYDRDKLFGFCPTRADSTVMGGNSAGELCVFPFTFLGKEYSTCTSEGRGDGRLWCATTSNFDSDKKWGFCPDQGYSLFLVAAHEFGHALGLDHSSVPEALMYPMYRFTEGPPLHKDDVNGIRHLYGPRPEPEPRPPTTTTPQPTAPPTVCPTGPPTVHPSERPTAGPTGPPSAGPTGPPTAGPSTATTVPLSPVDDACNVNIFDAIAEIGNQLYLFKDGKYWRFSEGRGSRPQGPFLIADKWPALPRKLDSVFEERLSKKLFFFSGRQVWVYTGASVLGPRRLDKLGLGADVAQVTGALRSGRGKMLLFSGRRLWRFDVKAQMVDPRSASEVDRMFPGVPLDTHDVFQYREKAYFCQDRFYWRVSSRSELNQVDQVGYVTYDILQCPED
Procedure: as §1

T1 sequence (P14780 20-707): as the sequence (chain, as listed by the source limits assumed, chain 1 of 2) above
T2 sequence (P14780 20-707): as the sequence (chain, as listed by the source limits assumed, chain 1 of 2) above
neutrophil-derived human dimeric MMP9, sequence (P14780 20-707): as the sequence (chain, as listed by the source limits assumed, chain 1 of 2) above

IC50, DQ-gelatin digestion, MMP3/MMP9 assay [1]: 0.2 nM
efficacy of inhibition, MMP3/MMP9 assay with neutrophil-derived MMP9 [2]: 25%
efficacy of inhibition, MMP3/MMP9 assay with neutrophil-derived MMP9 [3]: 25%
efficacy of inhibition, MMP3/MMP9 assay with neutrophil-derived MMP9 [4]: 25%
IC50 (read off the curve) [5]: ~1 nM
IC50 (read off the curve) [6]: ~1 nM
Kd [7]: 0.9 nM
Kd [8]: 5 nM
B1: comparative antibody 1 (antibody known as AB0041) (antibody, human IgG4 S228P, kappa, V domains shown)
VH: QVQLKESGPGLVAPSQSLSITCTVSGFSLLSYGVHWVRQPPGKGLEWLGVIWTGGTTNYNSALMSRLSISKDDSKSQVFLKMNSLQTDDTAIYYCARYYYGMDYWGQGTSVTVSS
VL: DIVMTQSHKFMSTSVGDRVSITCKASQDVRNTVAWYQQKTGQSPKLLIYSSSYRNTGVPDRFTGSGSGTDFTFTISSVQAEDLAVYFCQQHYITPYTFGGGTKLEIKR
notes: also called anti-MMP9 comparative antibody 1
